# Reference: patent US20230203177A1 (Bristol-Myers Squibb, published 2023)
# Tests used:
# [1] = target: T1, soluble human CD40 extracellular domain (human, UniProt P25942 21-193); experiment: SPR, Ab captured from supernatant on protein A, hCD40 ECD analyte
# T1 construct: Produced in house; also called hCD40; soluble hCD40 extracellular domain
# In short: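 Biacore T200, 25 °C, PBS-T pH 7.2; antibodies (3 μg/ml, supernatants titre-normalised) captured on protein A chip 30 s. Human CD40 ECD analyte (5 and 50 nM, or 50 and 500 nM), 180 s association and 180 s dissociation at 30 μl/min; 1:1 Langmuir fit.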
# [2] = target: human CD40 on primary human tonsillar B cells (human, UniProt P25942 21-277); experiment: cell-based or functional assay
# [3] = target: T1, soluble human CD40 extracellular domain; experiment: SPR, purified Ab on protein A, 6 concentrations of hCD40 ECD
# Experimental: Additionally, to more accurately define the dissociation rate (kd), a longer dissociation time of 360 seconds (s) was used as opposed to the shorter 180 s dissociation that had been used in the supernatant screening experiment.
# CD40 binding SPR: SPR studies of the purified antibodies were conducted on BIAcore™ T200 instrument (GE Healthcare, Chicago Ill.). A Series S Protein A sensor chip (GE Healthcare, Chicago Ill.) was equilibrated with SPR running buffer of 10 mM NaPO₄, 130 mM NaCl, 0.05% tween 20, (PBS-T) pH 7.2 at 25° C. The purified antibody samples were diluted to 3 μg/ml in PBS-T and captured on the protein A surface for 30 s at 10 μl/min Binding of 3.91, 7.81, 15.6, 31.3, 62.5, and 125 nM human CD40 extracellular domain (produced in house) was evaluated using association time of 180 s at 30 μl/min, followed by a dissociation time of 360 s at 30 μl/min Regeneration between cycles was accomplished using two 15 s injections of 10 mM glycine pH 1.5. […] Data were analyzed using BIAcore™ T200 evaluation software by fitting to a 1:1 Langmuir model.
# [4] = target: T1, soluble human CD40 extracellular domain; experiment: SPR, antibody captured from supernatant on protein A chip, soluble hCD40 ECD at 5 and 50 nM (summary table of the 16 chosen antibodies)
# human CD40 on primary human tonsillar B cells, sequence (P25942 21-277 limits assumed): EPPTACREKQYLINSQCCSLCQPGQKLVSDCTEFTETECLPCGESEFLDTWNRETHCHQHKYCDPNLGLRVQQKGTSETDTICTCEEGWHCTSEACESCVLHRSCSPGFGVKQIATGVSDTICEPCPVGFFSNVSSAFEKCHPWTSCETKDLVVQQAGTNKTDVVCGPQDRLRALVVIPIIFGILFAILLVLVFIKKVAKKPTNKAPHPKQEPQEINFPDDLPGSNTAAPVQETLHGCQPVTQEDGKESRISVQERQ
# T1 sequence (P25942 21-193 limits assumed): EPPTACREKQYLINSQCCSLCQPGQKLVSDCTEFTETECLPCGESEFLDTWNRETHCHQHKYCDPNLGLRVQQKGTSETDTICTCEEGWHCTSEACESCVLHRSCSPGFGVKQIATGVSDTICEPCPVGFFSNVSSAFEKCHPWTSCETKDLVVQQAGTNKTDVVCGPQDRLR
Binder,Kd [1],"IC50, inhibition of tonsillar human B cell proliferation stimulated by IZ-hCD40L trimer [2]","IC50, inhibition of tonsillar human B cell proliferation stimulated by hCD40L expressing CHO cells [2]",Kd [3],koff [3],kon [3],Kd [4]
"M63 (HC-R67Q / LC-K45Q,R54Q,R61Q) (antibody, human IgG1, kappa, V domains shown, IgG1-P238K; also called HC15/LC4) VH: QVQLVQSGAEVKKPGSSVKVSCKASGYAFTSYWMHWVRQAPGQGLEWMGQINPTTGRSQYNEKFKTQVTITADKSTSTAYMELSSLRSEDTAVYYCARWGLQPFAYWGQGTLVTVSS VL: DIQMTQSPSFLSASVGDRVTITCKASQDVSTAVAWYQQKPGKAPQLLIYSASYQYTGVPSQFSGSGSGTDFTLTISSLQPEDFATYYCQQHYSTPWTFGGGTKVEIKR",2.4 nM,0.0057 µg/mL,0.208 µg/mL,1.8 nM,0.00073 s⁻¹,400000 M⁻¹ s⁻¹,2.4 nM
"M80 (HC-K63Q / LC-R61Q) (antibody, human IgG1, kappa, V domains shown, IgG1-P238K; also called HC16/LC5) VH: QVQLVQSGAEVKKPGSSVKVSCKASGYAFTSYWMHWVRQAPGQGLEWMGQINPTTGRSQYNEQFKTRVTITADKSTSTAYMELSSLRSEDTAVYYCARWGLQPFAYWGQGTLVTVSS VL: DIQMTQSPSFLSASVGDRVTITCKASQDVSTAVAWYQQKPGKAPKLLIYSASYRYTGVPSQFSGSGSGTDFTLTISSLQPEDFATYYCQQHYSTPWTFGGGTKVEIKR",4.1 nM,0.0164 µg/mL,0.369 µg/mL,2.9 nM,0.0007 s⁻¹,240000 M⁻¹ s⁻¹,4.1 nM
"M81 (HC-wt / LC-K107Q,R108Q) (antibody, human IgG1, kappa, IgG1-P238K; also called HC1/LC6) heavy: not shown light: DIQMTQSPSFLSASVGDRVTITCKASQDVSTAVAWYQQKPGKAPKLLIYSASYRYTGVPSRFSGSGSGTDFTLTISSLQPEDFATYYCQQHYSTPWTFGGGTKVEIQQTVAAPSVFIFPPSDEQLKSGTASVVCLLNNFYPREAKVQWKVDNALQSGNSQESVTEQDSKDSTYSLSSTLTLSKADYEKHKVYACEVTHQGLSSPVTKSFNRGEC",4.1 nM,0.0007 µg/mL,0.0257 µg/mL,3 nM,0.0007 s⁻¹,240000 M⁻¹ s⁻¹,4.1 nM
